Experiments:
CgHIFα bHLH-PAS = target: T1, CgHIFα bHLH-PAS (Crassostrea gigas, UniProt B6ZGN4 1-356); test: EMSA; no ARNT added; positive control; unlabeled Ew 200x competes; anti-His supershift; 10 mM Tris pH 7.5, 50 mM KCl, 1 mM DTT, 50 ng poly(dI-dC) in 20 uL, 20 min at room temperature; conditions: protein: recombinant; tags: His (pET30a); label: biotin end label (probe)
T1 sequence: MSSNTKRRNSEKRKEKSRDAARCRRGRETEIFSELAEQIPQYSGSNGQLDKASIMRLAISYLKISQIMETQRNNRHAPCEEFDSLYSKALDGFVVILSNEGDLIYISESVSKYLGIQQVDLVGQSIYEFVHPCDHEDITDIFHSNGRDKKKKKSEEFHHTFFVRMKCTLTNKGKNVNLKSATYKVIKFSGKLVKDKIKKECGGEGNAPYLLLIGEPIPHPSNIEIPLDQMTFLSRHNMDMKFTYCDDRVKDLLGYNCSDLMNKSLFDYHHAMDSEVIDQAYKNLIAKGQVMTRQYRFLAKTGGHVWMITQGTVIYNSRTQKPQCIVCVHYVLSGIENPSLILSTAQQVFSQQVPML

[1] = target: T2, CgHIFα-like bHLH-PAS (CgHIFαlike-His) (Crassostrea gigas, UniProt A0A167QPK5 1-385); test: EMSA; no ARNT added; 1 ug protein, 20 fmol probe, 50 ng poly(dI-dC); unlabeled Ew 200x competes; anti-His supershift; 10 mM Tris pH 7.5, 50 mM KCl, 1 mM DTT, 50 ng poly(dI-dC) in 20 uL, 20 min at room temperature; conditions: protein: recombinant; tags: His (pET30a); label: biotin end label (probe)
T2 sequence: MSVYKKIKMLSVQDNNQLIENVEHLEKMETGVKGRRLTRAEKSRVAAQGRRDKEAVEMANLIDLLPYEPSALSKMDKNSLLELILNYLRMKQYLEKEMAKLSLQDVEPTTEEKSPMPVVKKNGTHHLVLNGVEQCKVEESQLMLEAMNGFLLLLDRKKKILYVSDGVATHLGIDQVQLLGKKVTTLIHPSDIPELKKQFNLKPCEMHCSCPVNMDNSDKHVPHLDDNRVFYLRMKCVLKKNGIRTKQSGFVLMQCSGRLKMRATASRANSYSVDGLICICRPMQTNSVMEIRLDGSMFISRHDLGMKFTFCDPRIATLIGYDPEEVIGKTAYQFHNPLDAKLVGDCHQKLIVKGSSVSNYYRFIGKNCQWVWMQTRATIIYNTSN

B1: Ew (human EPO HRE probe) (dsDNA)
DNA 1: GCCCTACGTGCTGTCTCA
DNA 2: TGAGACAGCACGTAGGGC
B1: binds (CgHIFα bHLH-PAS); binds [1].

Reference: PMC5096685, “Characterization of CgHIFα-Like, a Novel bHLH-PAS Transcription Factor Family Member, and Its Role under Hypoxia Stress in the Pacific Oyster Crassostrea gigas”
